Reference: patent US20260209386A1 (MYTHIC THERAPEUTICS, published 2026)
Numbering of substitutions follows the chain as printed.

T1: Human PTK7 Protein, His Tag (Acro Biosystems) (human, UniProt Q13308 31-704)
T1 construct: Bought His-tagged recombinant human PTK7; also called CCK4; Tyrosine-protein kinase-like 7
T1 sequence: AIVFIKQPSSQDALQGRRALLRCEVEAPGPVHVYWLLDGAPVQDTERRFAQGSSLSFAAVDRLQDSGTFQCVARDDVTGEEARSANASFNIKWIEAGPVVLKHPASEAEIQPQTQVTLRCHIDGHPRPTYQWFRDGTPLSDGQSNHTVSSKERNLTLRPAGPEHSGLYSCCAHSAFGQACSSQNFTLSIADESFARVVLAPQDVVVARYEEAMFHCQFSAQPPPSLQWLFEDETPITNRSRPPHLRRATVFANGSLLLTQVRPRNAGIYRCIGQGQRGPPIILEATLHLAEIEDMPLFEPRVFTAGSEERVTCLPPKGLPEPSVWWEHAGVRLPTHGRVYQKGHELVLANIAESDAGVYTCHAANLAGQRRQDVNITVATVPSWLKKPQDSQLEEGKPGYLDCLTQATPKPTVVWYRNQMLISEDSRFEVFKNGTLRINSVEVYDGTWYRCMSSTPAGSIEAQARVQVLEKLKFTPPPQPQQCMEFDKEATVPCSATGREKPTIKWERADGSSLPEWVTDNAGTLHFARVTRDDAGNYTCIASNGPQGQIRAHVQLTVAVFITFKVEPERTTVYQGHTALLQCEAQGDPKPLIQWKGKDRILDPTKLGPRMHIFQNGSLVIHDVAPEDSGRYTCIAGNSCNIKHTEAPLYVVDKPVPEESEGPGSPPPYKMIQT

T2: Human PTK7 Protein, His Tag, Acro Biosystems (human, UniProt Q13308 31-704)
T2 construct: Bought recombinant protein; also called CCK4; not shown: His tag
T2 sequence: T1 sequence

T3: Human PTK7 Protein, His Tag, Acro Biosystems (human, UniProt Q13308 31-704)
T3 construct: Bought protein; also called CCK4; not shown: His tag
T3 sequence: T1 sequence

B1: MYT10988 (antibody, V domains shown)
VH: EVQLVESGGGLVQPGGSLRLSCTASGFSLSSYAMGWVRQAPGKGLEWVGFINAGGNTYYANWAKGRFTISRDTSKNTVYLQMNSLRAEDTAVYFCARRYSRASGWYHLWGQGTLVTVSS
VL: EIVMTQSPSTLSASVGDRVIITCQASQSISSYLAWYQQKPGKAPKLLIYAASTLASGVPSRFSGSGSGAEFTLTISSLQPDDFATYYCQSYSYSSGIDYGDVFGQGTKLTVL
notes: MYT9359 HC variant; captured on anti-human Fc sensor
B2: MYT11015 (antibody, V domains shown)
VH: B1 VH with H107D
VL: B1 VL with S94H
notes: MYT9359 LC variant; captured on anti-human Fc sensor
B3: MYT10956 (antibody, V domains shown)
VH: B1 VH with S31H, H107D
VL: B1 VL
notes: as for B1
B4: MYT11019 (antibody, V domains shown)
VH: B1 VH with H107D
VL: B1 VL with D98H
notes: as for B2
B5: MYT11008 (antibody, V domains shown)
VH: B1 VH with H107D
VL: B1 VL with A55H
notes: as for B2
B6: MYT10973 (antibody, V domains shown)
VH: B1 VH with W62H, H107D
VL: B1 VL
notes: as for B1
B7: MYT11009 (antibody, V domains shown)
VH: B1 VH with H107D
VL: B1 VL with S56H
notes: as for B2
B8: MYT10967 (antibody, V domains shown)
VH: B1 VH with N56H, H107D
VL: B1 VL
notes: as for B1
B9: MYT10971 (antibody, V domains shown)
VH: B1 VH with A60H, H107D
VL: B1 VL
notes: as for B1
B10: MYT10954 (antibody, V domains shown)
VH: B1 VH with L29H, H107D
VL: B1 VL
notes: as for B1
B11: MYT10996 (antibody, V domains shown)
VH: B1 VH with H107D
VL: B1 VL with S28H
notes: as for B2
B12: MYT10965 (antibody, V domains shown)
VH: B1 VH with G54H, H107D
VL: B1 VL
notes: as for B1
B13: MYT10992 (antibody, V domains shown)
VH: B1 VH with H107D
VL: B1 VL with Q24H
notes: as for B2
B14: MYT10994 (antibody, V domains shown)
VH: B1 VH with H107D
VL: B1 VL with S26H
notes: as for B2
B15: MYT11007 (antibody, V domains shown)
VH: B1 VH with H107D
VL: B1 VL with L54H
notes: as for B2
B16: MYT10976 (antibody, V domains shown)
VH: B1 VH with G65H, H107D
VL: B1 VL
notes: as for B1
B17: MYT11016 (antibody, V domains shown)
VH: B1 VH with H107D
VL: B1 VL with S95H
notes: as for B2
B18: MYT10972 (antibody, V domains shown)
VH: B1 VH with N61H, H107D
VL: B1 VL
notes: as for B1
B19: MYT10953 (antibody, V domains shown)
VH: B1 VH with S28H, H107D
VL: B1 VL
notes: as for B1
B20: MYT10968 (antibody, V domains shown)
VH: B1 VH with T57H, H107D
VL: B1 VL
notes: as for B1
B21: MYT10977 (antibody, V domains shown)
VH: B1 VH with A96H, H107D
VL: B1 VL
notes: as for B1
B22: MYT10975 (antibody, V domains shown)
VH: B1 VH with K64H, H107D
VL: B1 VL
notes: as for B1
B23: MYT10995 (antibody, V domains shown)
VH: B1 VH with H107D
VL: B1 VL with Q27H
notes: as for B2
B24: MYT11020 (antibody, V domains shown)
VH: B1 VH with H107D
VL: B1 VL with Y99H
notes: as for B2
B25: MYT10987 (antibody, V domains shown)
VH: B1 VH with Y106H, H107D
VL: B1 VL
notes: as for B1
B26: MYT11117 (antibody, V domains shown)
VH: EVQLVESGGGLVQPGGSLRLSCTASGFSLSTYAMSWVRQAPGKGLEWVGMIYINHNTYYASWAKGRFTISRDTSKNTVYLQMNSLRAEDTAVYFCARDIGISYYIGVSLWGQGTLVTVSS
VL: EIVMTQSPSTLSASVGDRVIITCQASQSIGTRLSWYQQKPGKAPKLLIYGASKLATGVPSRFSGSGSGAEFTLTISSLQPDDFATYYCLGEYSYTTTDGIAFGQGTKLTVL
notes: MYT9412 HC variant
B27: MYT11115 (antibody, V domains shown)
VH: B26 VH with I53H, H55D
VL: B26 VL
notes: MYT9412 HC variant
B28: MYT11106 (antibody, V domains shown)
VH: B26 VH with S30H, H55D
VL: B26 VL
notes: MYT9412 HC variant
B29: MYT11108 (antibody, V domains shown)
VH: B26 VH with Y32H, H55D
VL: B26 VL
notes: MYT9412 HC variant
B30: MYT11107 (antibody, V domains shown)
VH: B26 VH with T31H, H55D
VL: B26 VL
notes: MYT9412 HC variant
B31: MYT11120 (antibody, V domains shown)
VH: B26 VH with H55D, Y58H
VL: B26 VL
notes: MYT9412 HC variant
B32: MYT11103 (antibody, V domains shown)
VH: B26 VH with F27H, H55D
VL: B26 VL
notes: MYT9412 HC variant
B33: MYT11105 (antibody, V domains shown)
VH: B26 VH with L29H, H55D
VL: B26 VL
notes: MYT9412 HC variant
B34: MYT11247 (antibody, V domains shown)
VH: EVQLVESGGGLVQPGGSLRLSCTASGIDLSSYVMGWVRQAPGKGLEWVGYIYGGGGTYYATWARGRFTISRDTSKNTVYLQMNSLRAEDTAVYFCARAAADFYFNLWGQGTLVTVSS
VL: EIVMTQSPSTLSASVGDRVIITCQASQSISSYLAWYQQKPGKAPKLLIYDISDLASGVPSRFSGSGSGAEFTLTISSLQPDDFATYYCQSYYWISNSHAAFGQGTKLTVL
notes: LC variant of MYT9460, sub at LCV pos 98 (L3 10)
B35: MYT11249 (antibody, V domains shown)
VH: B34 VH
VL: B34 VL with H98G, A100H
notes: LC variant of MYT9460, sub at LCV pos 100 (L3 12)
B36: MYT11253 (antibody, V domains shown)
VH: B34 VH
VL: B34 VL with N96A, H98G
notes: LC variant of MYT9460, Ala sub at LCV pos 96 (L3 08)
B37: MYT11248 (antibody, V domains shown)
VH: B34 VH
VL: B34 VL with H98G, A99H
notes: LC variant of MYT9460, sub at LCV pos 99 (L3 11)

Target: T1, Human PTK7 Protein, His Tag (Acro …)
Assay: BLI (Octet), antibody on anti-human Fc sensor, 50 nM PTK7; 2 = substantially similar binding

binding result	Binder
binds	B1
binds	B2
binds	B3
binds	B4
binds	B5
binds	B6
binds	B7
binds	B8
binds	B9
binds	B10
binds	B11
binds	B12
binds	B13
binds	B14
binds	B15
binds	B16
binds	B17
binds	B18
binds	B19
binds	B20
binds	B21
binds	B22
binds	B23
binds	B24
binds	B25

Target: T2, Human PTK7 Protein, His Tag, Acro …
Assay: BLI, anti-human Fc capture, 50 nM PTK7; 1 = pH dependent binding relative to parent

binding result	Binder
binds	B26
binds	B27
binds	B28
binds	B29
binds	B30
binds	B31
binds	B32
binds	B33

Target: T3, Human PTK7 Protein, His Tag, Acro …
Assay: BLI (Octet), antibody on anti-human Fc sensor, 50 nM PTK7, dissociation at pH 7.4 or 5.4; 1 = pH dependent binding relative to parent

binding result	Binder
binds	B34
binds	B35
binds	B36
binds	B37
